In paper PMC3682478:

Molecular target: E. coli RNA polymerase in elongating complexes and paused transcription complexes (transcription assays) (E. coli) (UniProt P0A7Z4)
Sequence (P0A7Z4 whole entry, chain 1 of 3): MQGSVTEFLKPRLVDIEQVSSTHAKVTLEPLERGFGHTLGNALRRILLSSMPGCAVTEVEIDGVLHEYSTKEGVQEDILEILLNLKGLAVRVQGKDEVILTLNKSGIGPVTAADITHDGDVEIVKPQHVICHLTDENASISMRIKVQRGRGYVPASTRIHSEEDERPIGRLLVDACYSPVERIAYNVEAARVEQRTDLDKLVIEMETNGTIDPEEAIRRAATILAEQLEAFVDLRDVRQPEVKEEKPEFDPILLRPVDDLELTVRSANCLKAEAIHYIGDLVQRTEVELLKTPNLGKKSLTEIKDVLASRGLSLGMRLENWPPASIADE
Sequence (P0A8V2 whole entry, chain 2 of 3, further chain): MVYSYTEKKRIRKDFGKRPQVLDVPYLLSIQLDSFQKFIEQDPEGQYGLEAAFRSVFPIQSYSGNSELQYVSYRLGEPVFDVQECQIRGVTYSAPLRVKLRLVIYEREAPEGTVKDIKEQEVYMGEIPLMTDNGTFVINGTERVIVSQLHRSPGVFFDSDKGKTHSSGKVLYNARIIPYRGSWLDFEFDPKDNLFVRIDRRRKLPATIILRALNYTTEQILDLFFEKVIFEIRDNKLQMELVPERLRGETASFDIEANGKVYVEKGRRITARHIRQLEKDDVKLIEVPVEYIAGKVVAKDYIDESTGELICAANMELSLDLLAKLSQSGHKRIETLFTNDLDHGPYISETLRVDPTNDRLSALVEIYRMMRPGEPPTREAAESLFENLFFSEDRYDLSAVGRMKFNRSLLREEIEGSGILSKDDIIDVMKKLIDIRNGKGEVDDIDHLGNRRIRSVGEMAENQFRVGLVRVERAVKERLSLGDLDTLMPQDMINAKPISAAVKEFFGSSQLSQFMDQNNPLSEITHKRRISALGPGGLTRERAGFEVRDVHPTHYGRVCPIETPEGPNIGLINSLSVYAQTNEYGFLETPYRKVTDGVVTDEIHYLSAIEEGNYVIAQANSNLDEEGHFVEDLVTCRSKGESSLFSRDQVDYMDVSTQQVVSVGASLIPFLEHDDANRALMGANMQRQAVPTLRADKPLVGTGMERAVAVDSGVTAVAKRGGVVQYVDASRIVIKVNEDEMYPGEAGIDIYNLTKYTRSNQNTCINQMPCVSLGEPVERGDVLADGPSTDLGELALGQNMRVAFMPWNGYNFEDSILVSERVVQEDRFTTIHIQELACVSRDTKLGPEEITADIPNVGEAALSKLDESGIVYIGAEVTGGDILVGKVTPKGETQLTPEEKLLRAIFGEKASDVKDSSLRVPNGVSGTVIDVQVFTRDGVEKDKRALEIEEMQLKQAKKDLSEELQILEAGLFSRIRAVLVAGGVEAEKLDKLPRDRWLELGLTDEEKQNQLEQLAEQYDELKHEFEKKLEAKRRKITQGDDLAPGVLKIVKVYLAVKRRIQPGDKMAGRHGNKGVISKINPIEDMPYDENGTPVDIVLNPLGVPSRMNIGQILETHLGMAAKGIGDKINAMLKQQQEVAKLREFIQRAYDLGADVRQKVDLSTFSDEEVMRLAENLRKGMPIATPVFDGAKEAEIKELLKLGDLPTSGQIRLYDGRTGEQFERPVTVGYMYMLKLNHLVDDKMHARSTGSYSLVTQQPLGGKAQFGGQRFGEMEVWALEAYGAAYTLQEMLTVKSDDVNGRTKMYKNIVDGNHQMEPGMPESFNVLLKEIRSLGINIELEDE
Sequence (P0A8T7 whole entry, chain 3 of 3, further chain): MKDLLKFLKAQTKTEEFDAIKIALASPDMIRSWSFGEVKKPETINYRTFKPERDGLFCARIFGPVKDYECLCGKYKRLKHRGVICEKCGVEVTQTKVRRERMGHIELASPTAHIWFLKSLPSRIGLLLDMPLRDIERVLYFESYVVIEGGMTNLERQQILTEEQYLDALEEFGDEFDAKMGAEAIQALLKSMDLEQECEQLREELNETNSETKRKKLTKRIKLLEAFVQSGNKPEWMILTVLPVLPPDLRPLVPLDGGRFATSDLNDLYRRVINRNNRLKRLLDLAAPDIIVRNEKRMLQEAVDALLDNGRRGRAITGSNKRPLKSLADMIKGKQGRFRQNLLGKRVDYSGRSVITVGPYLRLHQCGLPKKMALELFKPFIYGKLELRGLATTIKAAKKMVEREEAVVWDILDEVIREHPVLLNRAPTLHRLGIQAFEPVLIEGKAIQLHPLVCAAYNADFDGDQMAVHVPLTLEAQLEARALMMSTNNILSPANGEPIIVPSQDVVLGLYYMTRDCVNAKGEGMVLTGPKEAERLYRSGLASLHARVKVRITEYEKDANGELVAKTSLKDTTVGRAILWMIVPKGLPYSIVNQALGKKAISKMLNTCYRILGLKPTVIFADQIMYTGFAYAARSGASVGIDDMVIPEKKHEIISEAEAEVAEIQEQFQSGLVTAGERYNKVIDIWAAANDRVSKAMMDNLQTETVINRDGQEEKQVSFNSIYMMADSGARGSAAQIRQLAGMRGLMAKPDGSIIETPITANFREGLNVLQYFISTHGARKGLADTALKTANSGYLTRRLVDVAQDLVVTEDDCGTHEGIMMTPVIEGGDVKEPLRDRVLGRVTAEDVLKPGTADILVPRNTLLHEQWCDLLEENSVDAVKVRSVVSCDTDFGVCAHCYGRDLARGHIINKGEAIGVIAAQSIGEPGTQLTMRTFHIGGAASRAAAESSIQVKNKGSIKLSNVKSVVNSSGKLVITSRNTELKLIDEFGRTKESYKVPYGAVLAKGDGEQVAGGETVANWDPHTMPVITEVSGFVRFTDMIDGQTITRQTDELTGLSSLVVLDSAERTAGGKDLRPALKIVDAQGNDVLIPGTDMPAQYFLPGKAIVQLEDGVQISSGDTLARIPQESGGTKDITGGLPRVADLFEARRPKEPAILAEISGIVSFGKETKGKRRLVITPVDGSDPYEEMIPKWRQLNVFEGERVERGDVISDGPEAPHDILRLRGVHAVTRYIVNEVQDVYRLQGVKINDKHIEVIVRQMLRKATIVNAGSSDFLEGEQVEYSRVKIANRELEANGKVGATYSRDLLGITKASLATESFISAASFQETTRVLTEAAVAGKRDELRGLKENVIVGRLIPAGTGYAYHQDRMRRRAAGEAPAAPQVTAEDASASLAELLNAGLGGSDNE

maximal pause stimulation k0/kNusA, his pause, scaffold: 1.27
Substance: NusA NTD with N-terminal deletion, Δ(3-18) NTD (from UniProt P0AFF6 1-137) (domain or fragment)
